Assay results reported in the supplement of paper PMC10567573.

B1: DYRK1B (parent)
chain: ARKYFERLPGGGWTLRRTKELRKD

Variants of: B1
Assay: protein stability index of a GFP-peptide fusion (GPS, HEK-293T) (PSI 1-6); higher = more stable
Settings: c terminus: a fixed tail appended
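Further: lentivirally expressed fusions sorted by FACS into six bins by GFP to DsRed ratio, PSI derived from sequencing read proportions per bin multiplied by bin number.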

Protein stability index of substitutions, site by site:
E20: D 3.65; S 3.34; Y 3.6; R 3.3; N 3.14; L 3.23; V 3.47; G 4.17; H 1.79; W 2.76; F 3.57; C 3.69; K 2.89; A 4.5; M 3.38; Q 3.26; I 2.04; T 3.27
G10: M 3.27; V 3.45; F 2.63; I 2.38; Y 2.35; A 2.93; T 3.19; W 2.97; R 3.75; D 4.16; N 4.09; S 3.19
F5: K 4.25; E 4.26; G 3.63; L 3.83; A 3.86; S 4.35; Y 4.08; N 4.02; V 3.98; R 3.58; Q 3.71; M 2.98; H 3.82; I 2.91; D 3.84
K3: E 4.13; M 3.12; Y 2.58; P 2.96; H 3.56; I 1.92; R 3.9; A 3.79; G 3.51; S 3.55; V 2.69; T 3.55; L 2.48; Q 3.67; W 2.6; C 3.24; N 2.5; F 1.98
P9: I 2.13; K 2.5; H 2.48; W 2.11; A 2.83; L 2.43; D 4.24; Y 1.9; F 1.87; R 3.22; Q 3.67; E 3.41; N 1.97; T 3.02; V 2.96; C 1.91
G12: S 3.11; I 2.03; E 3.02; F 2.93; K 3.81; V 2.15; M 2.95; A 3.06; L 2.57; D 4.15; N 2; P 2.96; T 2.98; Y 2.42; H 3.85; Q 2.95
L8: Q 3.38; C 3.18; D 4.19; F 2.57; S 5.45; R 3.25; E 3.71; T 4.18; M 3.47; P 3.85; V 3.84; N 3.4; I 3.5; W 2.13; Y 4.07; H 3.32
K19: Y 3.25; F 3.01; M 2.73; D 4.88; T 3.41; H 3.08; S 3.82; P 3.97; W 2.35; I 2.87
K23: I 2.58; H 3.33; T 3.14; Q 2.83; L 2.81; V 3.18; P 3.1; Y 3.07; N 3.34; D 2.72
T18: L 1.73; R 3.72; Y 2.26; P 3.57; I 3.93; M 3.88; D 4.05; V 3.69
T14: V 2.91; R 2.33; Y 3.01; K 3.34; S 3.34; W 2.72; F 2.36; Q 2.9; P 2.52
A1: R 3.19; Y 2.27; P 2.89; V 3.19; Q 3.7; S 3.9; T 3.31
D24: I 3.82; A 3.75; E 3.63; H 2.54; C 2.7; F 2.3; G 3.24
G11: Y 2.73; K 2.06; T 3.46; M 2.78; Q 3.34; D 2.93; P 2.74; V 2.48; W 2.82; N 3.17; F 2.89; C 3.26; L 3.11; H 2.4; S 2.49; I 2.79
Y4: A 2.7; Q 3.34; R 4.29; F 2.91; T 3.14; V 3.44; C 3.29; G 4.37; S 3.37; L 3.14; H 4.07; I 2.87; D 4.48; M 3.21; P 4.82; W 2.2; N 4.17; E 3.76
R17: N 3.22; D 3.54; P 2.75; L 2.43; E 3.46; Y 3.02; V 2.07; K 2.69; I 2.03; W 2.35; F 2.58; S 3.35; Q 2.83; C 2.84; H 3.2; M 2.38; G 3.6
W13: F 3.47; I 3.31; R 3.3; P 4.18; D 3.59; G 5.15; C 4.61; E 4.05; T 3.36; N 3.95; V 3.07; A 3.72; L 3.54; K 3.77; M 3.54; H 2.52
L21: S 4.45; E 4.62; W 3.76; Q 3.88; C 4.41; K 3.73; P 3.26; G 3.95; H 3.95; I 3.44; V 3.7
R16: P 3.73; V 4.2; Y 1.45; S 3.17; G 3.66; M 1.97; H 2.44; T 3.5; I 2.99; K 3.48; L 2.79; F 1.69
R2: F 3.89; Q 3.33; K 4.25; L 2.96; N 3.55; C 3.03; T 3.52; M 2.79; Y 3.85; G 3.74; P 4.56; H 2.73; W 2.38; D 4.1; S 4.28; E 4.64; A 3.77; I 2.83
E6: K 2.78; S 3.21; A 4.08; M 2.36; N 3.07; L 2.64; H 3.34; F 3.37; C 3.85; Q 2.55; Y 3.62; D 3.69; P 3.39; T 3.78; W 2.67; I 3.38; R 4.86; V 3.35
L15: D 2.88; I 3.22; K 3.15; A 3.78; N 2.95; P 2.7; M 3.25; T 3.35; Q 3.65; R 3.34; H 3.85; V 4.02; C 3.29; Y 3.73
R7: I 2.64; K 3.52; E 4.31; Y 3.25; Q 4.13; D 3.21; C 2.88; T 2.99; N 2.83; V 3.33; H 3.08; L 2.77; A 3.3; P 3.94; M 3.67; G 2.84; F 2.41; S 3.23; W 2.81
R22: Q 3.9; G 4.3; P 3.48; E 4.04; K 3.36; M 3.88; Y 1.88; A 4.14; T 4.19; F 3.59; L 2.59; H 3.5; N 3.97
